From patent publication US7026443

Target: HLA-A*6802 (human)
Assay: competition with 125I-labelled standard peptide on purified HLA, gel filtration

HPV16 E7 86 TLGIVCPI (peptide) gave a binding affinity ratio (IC50 of standard peptide / IC50 of test peptide) of 0.0047.
